Laboratory results: the supplement of paper PMC12042874
± gives the uncertainty stated by the source.

Assay: amyloid nucleation score (Sup35N fusion, yeast selection) (log enrichment); library NNK1; higher = more nucleation; inactive = no reads after selection
Outline: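 Random libraries were run with three technical output replicates. In each, psi-negative yeast expressing Sup35N fused to peptides of 20 random codons were induced 24 hours with 100 μM copper sulfate and grown 7 days at 30°C on medium lacking adenine and uracil, and input and output plasmid inserts were Illumina-sequenced. The nucleation score is the DiMSum log enrichment of output over input reads, centred on the mode score of non-aggregating sequences, and sequences under 100 input reads were excluded.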

THTRCLLVW and ILGWHGIRFVFRTALFRR are within error of each other in amyloid nucleation score: 0.216 ± 0.46 for the first, -0.286 ± 0.41 for the second.

SFWNSLV and FIVHANWQSFYFLLRLMVF are within error of each other in amyloid nucleation score: 0.468 ± 1.2 for the first, -0.109 ± 1 for the second.

VDKNMFI and YMRRVLPRCHPIWNGFPFAR are within error of each other in amyloid nucleation score: -0.021 ± 1.2 for the first, 0.254 ± 0.93 for the second.

ERVGAGVGSNERRD and HLLNYIVGL are within error of each other in amyloid nucleation score: 0.646 ± 0.89 for the first, 0.294 ± 0.69 for the second.

First: SGFGYSYCTLHCRTFWCLRP
Second: SDFRMTGLLTWYRSI
The amyloid nucleation score of the first is higher: 0.972 ± 0.3 for the first, -0.228 ± 0.51 for the second.

HYLVLYVIMYMFVQMSLPC and TKMHCVGGSSRTNKSLWTIY are within error of each other in amyloid nucleation score: 2.14 ± 0.49 for the first, 1.08 ± 0.57 for the second.

Compared with ACELGFLPKHRHRGLVFVEG, TDQVWMLVSRRFKHFRHIEV is higher in amyloid nucleation score: -0.725 ± 0.8 for the first, 1.38 ± 0.2 for the second.

APEFFNSDRASIAKF and YWLSSVHSQSRVAK are within error of each other in amyloid nucleation score: -0.558 ± 0.77 for the first, -0.298 ± 1.7 for the second.

Compared with RCASHKTQYKRCGGVDEQEA, RTKCKASISNIPTRWYDP is lower in amyloid nucleation score: 1.96 ± 0.58 for the first, -0.469 ± 1.2 for the second.

Going from NIKEKG to IQSPC, the amyloid nucleation score falls from 0.635 ± 0.44 to -0.171 ± 0.23.

First: YKASG
Second: CLFWDSCYRKLLTIYDNM
The amyloid nucleation score of the first is higher: 0.794 ± 1.1 for the first, -0.941 ± 0.63 for the second.

First: YTPGSGVLRAGTADQLMRNF
Second: WMNGGQRSVWMCCMGRMHPW
The amyloid nucleation score of the first is lower: 0.522 ± 0.63 for the first, 7.738 ± 0.054 for the second.

KVCTHYSTHRWLSSQPSKVV and PMPSLECNGVHFIKGIRLTL are within error of each other in amyloid nucleation score: -0.696 ± 1.9 for the first, 0.754 ± 0.99 for the second.

KRDLPTQTTDNLACSWAPTQ and DDCESFEMRAFM are within error of each other in amyloid nucleation score: -0.884 ± 2.4 for the first, 1 ± 0.55 for the second.

AAAFSSGGKLFHAGCWRRMM and VIDKDGVANGKVVLASHCVN are within error of each other in amyloid nucleation score: -0.681 ± 1.6 for the first, -0.766 ± 0.86 for the second.

IYSARFIGVRPNYYCMDARP and VDGRDKSFQSFYCKK are within error of each other in amyloid nucleation score: -0.85 ± 0.88 for the first, 0.236 ± 0.56 for the second.

LWRLANWRM and RLRVVL are within error of each other in amyloid nucleation score: -0.46 ± 0.27 for the first, -0.537 ± 0.64 for the second.

TWSRNIINFRIFWYTLFQVH and MVIPFFLSSLLSL are within error of each other in amyloid nucleation score: 0.005 ± 0.29 for the first, -0.835 ± 0.7 for the second.

Compared with YRFQTSISNCYSAERDWGT, RRYRSWGGV is lower in amyloid nucleation score: 1.37 ± 0.42 for the first, -0.267 ± 0.35 for the second.

DLSRDAIRSKSEGAVR and MSQDR are within error of each other in amyloid nucleation score: -1.24 ± 1.7 for the first, -0.061 ± 0.94 for the second.

SNREFLQSVVLW and TWIVEELFIGDRLALREGFR are within error of each other in amyloid nucleation score: 0.209 ± 0.48 for the first, 0.406 ± 0.63 for the second.

First: IFVSSVRGAPYIYKCTKSRM
Second: SKSCFFKQYLTSIIYLHTKK
The amyloid nucleation score of the first is lower: -0.504 ± 0.52 for the first, 0.418 ± 0.32 for the second.

Compared with IPDVEGQGG, RKPVVGSFIFTTFCKSYVDV is higher in amyloid nucleation score: 0.469 ± 0.72 for the first, 2.9 ± 0.1 for the second.

Going from QARSGPTPLTTWRTRQVTLG to FEIMQPNAHISCHYCYLVNM, the amyloid nucleation score rises from -0.178 ± 0.51 to 5.01 ± 0.059.

NINPHLLTISFHWLRPQLAP and HIMEIVESFTIETRMIKGCV are within error of each other in amyloid nucleation score: -0.745 ± 1.7 for the first, 0.874 ± 0.53 for the second.

Compared with GINNIYGLRYRHMPTSSIVA, GEFESSNVRSACSGGYFRAA is lower in amyloid nucleation score: 1.88 ± 0.39 for the first, -0.186 ± 0.88 for the second.

HSVNACLTGRKGAPLRDKPG and CGGYSTTCSLTWEILASNRL are within error of each other in amyloid nucleation score: 0.166 ± 0.78 for the first, 0.675 ± 1 for the second.

Compared with IIMRTMHHAKRLSGLKP, CMSIRWSCYPLNNQVVATEV is lower in amyloid nucleation score: 0.996 ± 0.44 for the first, 0.044 ± 0.29 for the second.

Compared with SVDVHYAGRSC, SNNGCRIQRGVRNLAKGSTL is lower in amyloid nucleation score: 0.552 ± 0.36 for the first, -1.09 ± 0.9 for the second.

NSEISRGGVMGVCAVLLMSF and DYDTMSNFSDSALCTPIRCD are within error of each other in amyloid nucleation score: 0.273 ± 0.97 for the first, 0.485 ± 0.35 for the second.

FFWEY and LPFMTHVHVLSRQKTKVKGR are within error of each other in amyloid nucleation score: -0.312 ± 1.5 for the first, -0.041 ± 0.28 for the second.

MTVSRNFDYAKLCEWRRVNR gave an amyloid nucleation score of -0.371 ± 0.37.

With WVHMFMHDYNMRYTFSVYMC the amyloid nucleation score was “inactive”.
In the case of NMFAWV, the amyloid nucleation score is reported as “inactive”.
In the case of GYIVYDIMYAIFYKQTVYLI, the amyloid nucleation score is reported as “inactive”.
With YCFSSSYVWHNRDGSINMFK the amyloid nucleation score was “inactive”.
With CYMKNKLSFIM the amyloid nucleation score was “inactive”.
In the case of VGYLFRSTSFV, the amyloid nucleation score is reported as “inactive”.
With YGHLDPFTKLWSLWGIIMNW the amyloid nucleation score was “inactive”.
For TQPMSF, the amyloid nucleation score was “inactive”.
